# Reference: US20140087995A1 (published 2014)
# Numbered stars: 1 amine (or outer) side, 2 acyl side, 3 side chain; on linkers, the order of the positions; unused ones are H or OH. Bridge positions count the residues as written; N and C are the ends. Side chains are listed from the residue outwards. Ends that are not written are not given here. * marks the point of attachment. C20 diacid = O=C(O)CCCCCCCCCCCCCCCCCCC(=O)*; γGlu = O=C(O)[C@H](CCC(=O)[*:2])N[*:1]; AEEA = NCCOCCOCC(=O)O
# T1: human amylin receptor (amylin 3(a) receptor: human calcitonin receptor with RAMP-3) (human, UniProt P30988 25-474; O60896 24-148)
# T1 construct: whole, on cells; Assay used cell membranes of the Amylin 3(a)/CRE-luc BHK cells, not intact cells; also called hAmylin-R; hAmylinR
# T1 sequence (looked up) 1: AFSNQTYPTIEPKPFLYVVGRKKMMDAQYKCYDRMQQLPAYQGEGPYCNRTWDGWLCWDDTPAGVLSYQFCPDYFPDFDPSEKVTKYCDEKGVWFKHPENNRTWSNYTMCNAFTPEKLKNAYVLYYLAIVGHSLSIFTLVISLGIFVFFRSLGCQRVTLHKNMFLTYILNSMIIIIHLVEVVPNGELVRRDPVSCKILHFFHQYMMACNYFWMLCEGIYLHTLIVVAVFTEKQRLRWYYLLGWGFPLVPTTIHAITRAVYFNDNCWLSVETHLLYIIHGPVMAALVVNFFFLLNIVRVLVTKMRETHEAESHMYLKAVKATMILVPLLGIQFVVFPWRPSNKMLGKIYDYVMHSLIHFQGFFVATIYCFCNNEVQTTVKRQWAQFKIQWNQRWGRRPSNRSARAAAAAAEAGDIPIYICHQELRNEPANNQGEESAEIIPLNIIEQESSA
# T1 sequence (looked up) 2: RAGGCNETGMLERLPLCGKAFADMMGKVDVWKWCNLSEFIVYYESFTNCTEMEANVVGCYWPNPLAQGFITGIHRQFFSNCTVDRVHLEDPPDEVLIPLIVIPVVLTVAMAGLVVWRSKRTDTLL
# T2: human calcitonin receptor (human, UniProt P30988 25-474)
# T2 construct: whole, on cells; Assay used cell membranes, not intact cells; also called hCTR; hCT
# T2 sequence (looked up): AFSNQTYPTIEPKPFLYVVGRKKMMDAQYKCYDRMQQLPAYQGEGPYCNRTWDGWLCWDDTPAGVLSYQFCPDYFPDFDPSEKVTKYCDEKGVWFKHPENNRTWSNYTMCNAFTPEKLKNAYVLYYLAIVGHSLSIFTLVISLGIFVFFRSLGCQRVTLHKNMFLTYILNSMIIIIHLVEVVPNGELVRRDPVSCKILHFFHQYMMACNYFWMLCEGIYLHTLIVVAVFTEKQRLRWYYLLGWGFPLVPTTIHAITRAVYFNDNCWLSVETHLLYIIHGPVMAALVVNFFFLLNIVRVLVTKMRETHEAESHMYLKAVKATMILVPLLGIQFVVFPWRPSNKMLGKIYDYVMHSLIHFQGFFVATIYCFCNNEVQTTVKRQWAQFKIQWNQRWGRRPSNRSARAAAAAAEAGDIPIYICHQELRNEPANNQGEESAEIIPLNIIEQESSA
# Tests used:
# [1] = target: T1, human amylin receptor (amylin 3(a) …); assay: SPA competition with 125I-rat amylin on membranes of BHK cells with human calcitonin receptor and RAMP-3 (Assay V)
# Protocol: The binding assay was performed using scintillation proximity assay (SPA) beads (RPNQ0001) from PerkinElmer and cell membranes from the Amylin 3(a)/CRE-luc cells (as described in Assay (II)) were used. Membranes were prepared in the following way; the cells were rinsed with PBS and incubated with Versene for approximately 5 min before harvesting. The cells were flushed with PBS and the cell-suspension was centrifuged for 5 min at 1000 rpm. Cells were homogenized (ultrathurrax) in a buffer containing 20 mM Na-HEPES and 10 mM EDTA (pH 7.4) and centrifuged at 20.000 rpm for 15 min. The resulting pellet was resuspended, homogenized and centrifuged (20.000 rpm, 15 min) in a buffer containing 20 mM Na-HEPES and 0.1 mM EDTA (pH 7.4, buffer 2). The resulting pellet was resuspended in buffer 2 and protein concentration was measured (BCA protein Assay, Pierce). The homogenate was kept cold during the whole procedure. The membranes were kept at −80° C. until use. The assay was performed in a 384 well Optiplate (PerkinElmer) in a total volume of 40 ul. Membranes were mixed with SPA beads. Final concentration of membranes 35 ng/μL final and SPA beads was 0.05 mg/well. Test-compounds were dissolved in DMSO and further diluted in assay buffer (50 mM Hepes, pH 7.4, 1 mM CaCl2, 5 mM MgCl₂, 0.1% OA and 0.02% Tween20). […] The final mixture was incubated with shaking at 400 rpm for 120 min at 25° C. prior to centrifugation (1500 rpm, 10 min). Samples were analyzed on TopCounter™ (Packard). The IC₅₀ was calculated using (one site binding competition analysis) GraphPad Prism5 as a measure of receptor affinity.
# [2] = target: T2, human calcitonin receptor; assay: SPA competition with 125I-calcitonin on membranes of BHK cells with human calcitonin receptor (Assay VII)
# Protocol: Membranes were prepared in the following way; the cells were rinsed with PBS and incubated with Versene for approximately 5 min before harvesting. The cells were flushed with PBS and the cell-suspension was centrifuged for 5 min at 1000 rpm. Cells were homogenized (Ultrathurrax) in a buffer containing 20 mM Na-HEPES and 10 mM EDTA (pH 7.4) and centrifuged at 20.000 rpm for 15 min. The resulting pellet was resuspended, homogenized and centrifuged (20.000 rpm, 15 min) in a buffer containing 20 mM Na-HEPES and 0.1 mM EDTA (pH 7.4, buffer 2). The resulting pellet was resuspended in buffer 2 and protein concentration was measured (BCA protein Assay, Pierce). The homogenate was kept cold during the whole procedure. The membranes were kept at −80° C. until use. Assay was performed in a 384 well Optiplate (PerkinElmer) in a total volume of 40 ul. Membranes were mixed with SPA beads. Final concentration of membranes 35 ng/μL final and Final concentration of SPA beads was 0.05 mg/well. Test-compounds were dissolved in DMSO and further diluted in assay buffer (50 mM Hepes, pH 7.4, 1 mM CaCl2, 5 mM MgCl₂, 0.1% OA and 0.02% Tween20). […] The final mixture was incubated for 120 min with shaking at 400 rpm at 25° C. prior to centrifugation (1500 rpm, 10 min). Samples were analyzed on TopCounter™ (Packard). The […] was calculated using (one site binding competition analysis) GraphPad Prism5 as a measure of receptor affinity.
# [3] = target: T2, human calcitonin receptor; assay: ratio IC50 hCTR / IC50 hAmylin-R (reference: human amylin receptor), SPA competition assays
# Protocol: The resulting pellet was resuspended, homogenized and centrifuged (20.000 rpm, 15 min) in a buffer containing 20 mM Na-HEPES and 0.1 mM EDTA (pH 7.4, buffer 2). The resulting pellet was resuspended in buffer 2 and protein concentration was measured (BCA protein Assay, Pierce). The homogenate was kept cold during the whole procedure. The membranes were kept at −80° C. until use. The assay was performed in a 384 well Optiplate (PerkinElmer) in a total volume of 40 ul. Membranes were mixed with SPA beads. Final concentration of membranes 35 ng/μL final and SPA beads was 0.05 mg/well. Test-compounds were dissolved in DMSO and further diluted in assay buffer (50 mM Hepes, pH 7.4, 1 mM CaCl2, 5 mM MgCl₂, 0.1% OA and 0.02% Tween20). […] The final mixture was incubated with shaking at 400 rpm for 120 min at 25° C. prior to centrifugation (1500 rpm, 10 min). Samples were analyzed on TopCounter™ (Packard). The IC₅₀ was calculated using (one site binding competition analysis) GraphPad Prism5 as a measure of receptor affinity.
# Membranes were prepared in the following way; the cells were rinsed with PBS and incubated with Versene for approximately 5 min before harvesting. The cells were flushed with PBS and the cell-suspension was centrifuged for 5 min at 1000 rpm. Cells were homogenized (Ultrathurrax) in a buffer containing 20 mM Na-HEPES and 10 mM EDTA (pH 7.4) and centrifuged at 20.000 rpm for 15 min. The resulting pellet was resuspended, homogenized and centrifuged (20.000 rpm, 15 min) in a buffer containing 20 mM Na-HEPES and 0.1 mM EDTA (pH 7.4, buffer 2). The resulting pellet was resuspended in buffer 2 and protein concentration was measured (BCA protein Assay, Pierce). The homogenate was kept cold during the whole procedure. The membranes were kept at −80° C. until use. Assay was performed in a 384 well Optiplate (PerkinElmer) in a total volume of 40 ul. Membranes were mixed with SPA beads.
Binder,IC50 [1] [nM],IC50 [2] [nM],Ratio hCT/hAmylin binding [3]
"K([AEEA-AEEA-γGlu-C20 diacid])CNTATCATQRLANFLRHSSPNFGAIPSSTNVGPNTY-NH2 (disulfide 2-7; N-terminus assumed; SMILES CC[C@H](C)[C@H](NC(=O)[C@H](C)NC(=O)CNC(=O)[C@H](Cc1ccccc1)NC(=O)[C@H](CC(N)=O)NC(=O)[C@@H]1CCCN1C(=O)[C@H](CO)NC(=O)[C@H](CO)NC(=O)[C@H](Cc1c[nH]cn1)NC(=O)[C@H](CCCNC(=N)N)NC(=O)[C@H](CC(C)C)NC(=O)[C@H](Cc1ccccc1)NC(=O)[C@H](CC(N)=O)NC(=O)[C@H](C)NC(=O)[C@H](CC(C)C)NC(=O)[C@H](CCCNC(=N)N)NC(=O)[C@H](CCC(N)=O)NC(=O)[C@@H](NC(=O)[C@H](C)NC(=O)[C@@H]1CSSC[C@H](NC(=O)[C@@H](N)CCCCNC(=O)COCCOCCNC(=O)COCCOCCNC(=O)CC[C@H](NC(=O)CCCCCCCCCCCCCCCCCCC(=O)O)C(=O)O)C(=O)N[C@@H](CC(N)=O)C(=O)N[C@@H]([C@@H](C)O)C(=O)N[C@@H](C)C(=O)N[C@@H]([C@@H](C)O)C(=O)N1)[C@@H](C)O)C(=O)N1CCC[C@H]1C(=O)N[C@@H](CO)C(=O)N[C@@H](CO)C(=O)N[C@H](C(=O)N[C@@H](CC(N)=O)C(=O)N[C@H](C(=O)NCC(=O)N1CCC[C@H]1C(=O)N[C@@H](CC(N)=O)C(=O)N[C@H](C(=O)N[C@@H](Cc1ccc(O)cc1)C(N)=O)[C@@H](C)O)C(C)C)[C@@H](C)O, also called compound 98)",0.091,6.74,74.1
"K([AEEA-C20 diacid])CNTATCATQRLAHFLRHSSPNFGAIPSSTNVGSNTY-NH2 (disulfide 2-7; N-terminus assumed; SMILES CC[C@H](C)[C@H](NC(=O)[C@H](C)NC(=O)CNC(=O)[C@H](Cc1ccccc1)NC(=O)[C@H](CC(N)=O)NC(=O)[C@@H]1CCCN1C(=O)[C@H](CO)NC(=O)[C@H](CO)NC(=O)[C@H](Cc1c[nH]cn1)NC(=O)[C@H](CCCNC(=N)N)NC(=O)[C@H](CC(C)C)NC(=O)[C@H](Cc1ccccc1)NC(=O)[C@H](Cc1c[nH]cn1)NC(=O)[C@H](C)NC(=O)[C@H](CC(C)C)NC(=O)[C@H](CCCNC(=N)N)NC(=O)[C@H](CCC(N)=O)NC(=O)[C@@H](NC(=O)[C@H](C)NC(=O)[C@@H]1CSSC[C@H](NC(=O)[C@@H](N)CCCCNC(=O)COCCOCCNC(=O)CCCCCCCCCCCCCCCCCCC(=O)O)C(=O)N[C@@H](CC(N)=O)C(=O)N[C@@H]([C@@H](C)O)C(=O)N[C@@H](C)C(=O)N[C@@H]([C@@H](C)O)C(=O)N1)[C@@H](C)O)C(=O)N1CCC[C@H]1C(=O)N[C@@H](CO)C(=O)N[C@@H](CO)C(=O)N[C@H](C(=O)N[C@@H](CC(N)=O)C(=O)N[C@H](C(=O)NCC(=O)N[C@@H](CO)C(=O)N[C@@H](CC(N)=O)C(=O)N[C@H](C(=O)N[C@@H](Cc1ccc(O)cc1)C(N)=O)[C@@H](C)O)C(C)C)[C@@H](C)O, also called compound 90) [N^ε1-[2-[2-[2-(19-carboxynonadecanoylamino)ethoxy]ethoxy]acetyl]-[His14,Arg17,Pro21,Pro27]-h-amylin]",0.061,2.57,42.2
"K([AEEA-C20 diacid])CNTATCATQRLANFLRHSSPNFGAIPSSTNVGHNTY-NH2 (disulfide 2-7; N-terminus assumed; SMILES CC[C@H](C)[C@H](NC(=O)[C@H](C)NC(=O)CNC(=O)[C@H](Cc1ccccc1)NC(=O)[C@H](CC(N)=O)NC(=O)[C@@H]1CCCN1C(=O)[C@H](CO)NC(=O)[C@H](CO)NC(=O)[C@H](Cc1c[nH]cn1)NC(=O)[C@H](CCCNC(=N)N)NC(=O)[C@H](CC(C)C)NC(=O)[C@H](Cc1ccccc1)NC(=O)[C@H](CC(N)=O)NC(=O)[C@H](C)NC(=O)[C@H](CC(C)C)NC(=O)[C@H](CCCNC(=N)N)NC(=O)[C@H](CCC(N)=O)NC(=O)[C@@H](NC(=O)[C@H](C)NC(=O)[C@@H]1CSSC[C@H](NC(=O)[C@@H](N)CCCCNC(=O)COCCOCCNC(=O)CCCCCCCCCCCCCCCCCCC(=O)O)C(=O)N[C@@H](CC(N)=O)C(=O)N[C@@H]([C@@H](C)O)C(=O)N[C@@H](C)C(=O)N[C@@H]([C@@H](C)O)C(=O)N1)[C@@H](C)O)C(=O)N1CCC[C@H]1C(=O)N[C@@H](CO)C(=O)N[C@@H](CO)C(=O)N[C@H](C(=O)N[C@@H](CC(N)=O)C(=O)N[C@H](C(=O)NCC(=O)N[C@@H](Cc1c[nH]cn1)C(=O)N[C@@H](CC(N)=O)C(=O)N[C@H](C(=O)N[C@@H](Cc1ccc(O)cc1)C(N)=O)[C@@H](C)O)C(C)C)[C@@H](C)O, also called compound 91) [N^ε1-[2-[2-[2-(19-carboxynonadecanoylamino)ethoxy]ethoxy]acetyl]-[Arg17,Pro21,Pro27,His34]-h-amylin]",0.119,12,101
